Data on 13 molecules can be found in patent publication US20250381223A1 (UTC THERAPEUTICS SHANGHAI, published 2025).

The Kd is a measure of binding affinity in units of concentration. Lower therefore signals higher affinity. A word on the koff: it is the first-order rate constant of dissociation. High values mean a short-lived complex, low ones a long-lived complex. One may read the kon as the rate constant with which the complex forms. A higher kon goes with faster complex formation. Usually EC50 stands for the concentration needed to bring the measured effect to its halfway point.

The target in experiment [1] is T1, BCMA-Fc recombinant protein (human, UniProt Q02223 1-54).
T1 construct: construct not described; not shown: Fc part
T1 sequence (looked up): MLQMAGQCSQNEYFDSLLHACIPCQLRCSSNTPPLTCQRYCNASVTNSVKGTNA
The experiment in a line: flow cytometry; CAR-T cells stained with 5 µg/mL BCMA-Fc, anti-human IgG Fc. The method, then: (5) Screening for functional anti-BCMA scFv in T cells: the anti-BCMA scFv was constructed into a bicistronic lentiviral CAR expression vector containing an IRES-truncated EGFR (tEGFR) expression cassette. The lentivirus was produced by transient transfection of 293T cells, followed by purification by ultracentrifugation and concentration. T cells were transduced with the CAR lentivirus to generate CAR-T cells, which were then cultured for 10 days. 10 days after lentivirus transduction, CAR-T cells were collected and stained with 5 μg/mL CD19-Fc protein (Ctrl Fc protein) or BCMA-Fc recombinant protein for 30 min at 4° C. After washing, the CAR-T cells were stained with the anti-human IgG Fc and anti-EGFR mAb. The samples were analyzed using a flow cytometer.
A general note: Flow cytometry measures light scatter and fluorescence of single cells or particles in a stream.

For experiment [2], the target named is T2, CD28 (detection antigen of the BLI assay) (human, UniProt P10747 19-152, limits assumed).
T2 construct: also called the antigen
The experiment can be described thus: BLI (GATOR); antibody loaded at 30 nM, antigen 300-37.5 nM. The text has this: The affinity kinetics of the humanized antibodies were detected using biolayer interferometry (BLI). The experimental procedures were as follows: [0533] 1. GATOR instrument was run, and the Kinetics experimental mode was selected. [0534] 2. The analysis program was run according to Table 5

Experiment [3] concerns the target T3, recombinant Human/Cynomolgus CD28 (N-6His) (Human/Cynomolgus, UniProt P10747 19-152).
T3 construct: Bought protein; also called antigen CD28; not shown: 6His tag at the N-terminus (N-6His)
The experiment can be described thus: ELISA; plate coated with CD28 (N-6His) 2 µg/mL; HRP-anti-hFc. The protocol:
The binding activity of the humanized antibody to the antigen CD28 was detected by the ELISA method. The experimental procedures were as follows: [0525] 1. 30 μL of recombinant Human/Cynomolgus CD28 (N-6His) (Suzhou Novoprotein Scientific Inc., C406) at a concentration of 2 μg/mL was added to each well of an ELISA plate, and the plate was incubated at 4° C. overnight. [0526] 2. The next day, the ELISA plate was washed 3 times with PBST (containing 0.05% Tween-20). [0527] 3. 250 μL of 5% skim milk powder (dissolved in PBS) was added to each well of the ELISA plate, and the plate was incubated at room temperature for 2 h. [0528] 4. The plate was washed 3 times with PBST, antibodies with different dilution ratios were added to the ELISA plate at 30 μL/well, and the plate was incubated at room temperature for 60 min. [0529] 5. The plate was washed 3 times with PBST, 30 μL of HRP-anti-hFc antibody was added to each well, and the plate was incubated at room temperature for 60 min. [0530] 6. The plate was washed 3 times with PBST, 30 μL of TMB was added to each well, and after color development at room temperature, 30 μL of 2 M H₂SO₄ was added to each well to stop the reaction. The plate was read at 450 nm.

B1: BCMA23 (scFv)
scFv: QSALTQPPSASGTPGQRVTISCSGSSPNIGGNSVNWYQQLPGTAPKLLMYTNNQRPSGVPDRFSGSKSGTSASLAISGLQSEDEADYYCAAWDDSLNGVVFGGGTKLTVLGGGGSGGGGSGGGGSQVQLVQSGAEVKKPGESLKISCKGSGYSFTSYWIGWVRQMPGKGLEWMGIIYPGDSDTRYSPSFQGQVTISADKSISTAYLQWSSLKASDTAMYYCARRGGALDYWGQGTLVTVSS
notes: On lentivirus-transduced T cells as CAR; also called anti-BCMA scFv BCMA23
Regarding B1, the binding result in experiment [1] is given as “binds”.

B2: huVH1huVL2 (antibody, human IgG1, kappa, V domains shown)
VH: QVKLQESGPGLVKPSETLSITCTVSGFSLSDYGVHWVRQSPGKGLEWLGVIWAGGGTNYNSALMSRKTISKDNSKSQVFLKMSSLTAADTAVYYCARDKGYSYYYSMDYWGQGTTVTVSS
VL: DIQLTQSPSSLSASVGDRVTITCRASESVEYYVTSLMQWYQQKPGKAPKLLIFAASNVESGVPSRFSGSGSGTNFTLTISSVQPEDFATYFCQQSRKVPYTFGGGTKLEIKR
In the case of B2, in experiment [2], the Kd came to 6.54 nM, the koff worked out at 0.000582 s⁻¹ and the kon was 89000 M⁻¹ s⁻¹. In experiment [3], the EC50 was determined as 0.0125 µg/mL.

B3: huVH5huVL2 (antibody, human IgG1, kappa, V domains shown)
VH: QVQLQESGPGLVKPSETLSLTCTVSGFSISDYGVHWIRQPPGKGLEWIGVIWAGGGTNYNPSLKSRVTISVDTSKNQVSLKLSSVTAADTAVYYCARDKGYSYYYSMDYWGQGTTVTVSS
VL: DIQLTQSPSSLSASVGDRVTITCRASESVEYYVTSLMQWYQQKPGKAPKLLIFAASNVESGVPSRFSGSGSGTNFTLTISSVQPEDFATYFCQQSRKVPYTFGGGTKLEIKR
B3: in experiment [2], the Kd stood at 10.8 nM, the koff worked out at 0.000909 s⁻¹ and the kon came to 84100 M⁻¹ s⁻¹. The EC50 in experiment [3] was determined as 0.0151 µg/mL.

B4: huVH3huVL3 (antibody, human IgG1, kappa, V domains shown)
VH: QVQLQESGPGLVKPSETLSLTCTVSGFSLSDYGVHWVRQSPGKGLEWIGVIWAGGGTNYNSALKSRKTISKDNSKSQVSLKLSSVTAADTAVYYCARDKGYSYYYSMDYWGQGTTVTVSS
VL: DIQLTQSPSSLSASVGDRVTITCRASESVEYYVTSLMQWYQQKPGKAPKLLIFAASNVESGVPSRFSGSGSGTDFTLTISSLQPEDFATYYCQQSRKVPYTFGGGTKLEIKR
In experiment [2], B4 came in with a Kd of 9.59 nM, a koff of 0.000818 s⁻¹ and a kon of 85300 M⁻¹ s⁻¹. Besides, in experiment [3], the EC50 worked out at 0.00827 µg/mL.

B5: huVH4huVL2 (antibody, human IgG1, kappa, V domains shown)
VH: QVQLQESGPGLVKPSETLSLTCTVSGFSLSDYGVHWIRQPPGKGLEWIGVIWAGGGTNYNSALKSRVTISVDTSKNQVSLKLSSVTAADTAVYYCARDKGYSYYYSMDYWGQGTTVTVSS
VL: DIQLTQSPSSLSASVGDRVTITCRASESVEYYVTSLMQWYQQKPGKAPKLLIFAASNVESGVPSRFSGSGSGTNFTLTISSVQPEDFATYFCQQSRKVPYTFGGGTKLEIKR
B5: in experiment [2], the Kd stood at 10.9 nM, the koff worked out at 0.000932 s⁻¹ and the kon worked out at 85400 M⁻¹ s⁻¹. For the same molecule, the concentration giving a half-maximal response (EC50) in experiment [3] worked out at 0.0126 µg/mL.

B6: huVH2huVL2 (antibody, human IgG1, kappa, V domains shown)
VH: QVQLQESGPGLVKPSETLSITCTVSGFSLSDYGVHWVRQPPGKGLEWLGVIWAGGGTNYNSALMSRKTISKDTSKNQVSLKMSSLTAADTAVYYCARDKGYSYYYSMDYWGQGTTVTVSS
VL: DIQLTQSPSSLSASVGDRVTITCRASESVEYYVTSLMQWYQQKPGKAPKLLIFAASNVESGVPSRFSGSGSGTNFTLTISSVQPEDFATYFCQQSRKVPYTFGGGTKLEIKR
On to B6, for which, in experiment [2], binding was characterised by a dissociation constant (Kd) of 6.59 nM, the koff stood at 0.000584 s⁻¹ and the kon was determined as 88700 M⁻¹ s⁻¹. Further, in experiment [3], the EC50 stood at 0.0126 µg/mL.

B7: huVH2huVL3 (antibody, human IgG1, kappa, V domains shown)
VH: QVQLQESGPGLVKPSETLSITCTVSGFSLSDYGVHWVRQPPGKGLEWLGVIWAGGGTNYNSALMSRKTISKDTSKNQVSLKMSSLTAADTAVYYCARDKGYSYYYSMDYWGQGTTVTVSS
VL: DIQLTQSPSSLSASVGDRVTITCRASESVEYYVTSLMQWYQQKPGKAPKLLIFAASNVESGVPSRFSGSGSGTDFTLTISSLQPEDFATYYCQQSRKVPYTFGGGTKLEIKR
In experiment [2], B7 had a Kd of 7.44 nM, a koff of 0.000635 s⁻¹ and a kon of 85400 M⁻¹ s⁻¹. In addition, the EC50 in experiment [3] turned out to be 0.0104 µg/mL.

B8: huVH4huVL3 (antibody, human IgG1, kappa, V domains shown)
VH: QVQLQESGPGLVKPSETLSLTCTVSGFSLSDYGVHWIRQPPGKGLEWIGVIWAGGGTNYNSALKSRVTISVDTSKNQVSLKLSSVTAADTAVYYCARDKGYSYYYSMDYWGQGTTVTVSS
VL: DIQLTQSPSSLSASVGDRVTITCRASESVEYYVTSLMQWYQQKPGKAPKLLIFAASNVESGVPSRFSGSGSGTDFTLTISSLQPEDFATYYCQQSRKVPYTFGGGTKLEIKR
In experiment [2], B8 registered a Kd of 11.2 nM, a koff of 0.000966 s⁻¹ and a kon of 86600 M⁻¹ s⁻¹. The EC50 in experiment [3] worked out at 0.0127 µg/mL.

B9: huVH3huVL1 (antibody, human IgG1, kappa, V domains shown)
VH: QVQLQESGPGLVKPSETLSLTCTVSGFSLSDYGVHWVRQSPGKGLEWIGVIWAGGGTNYNSALKSRKTISKDNSKSQVSLKLSSVTAADTAVYYCARDKGYSYYYSMDYWGQGTTVTVSS
VL: DIQLTQSPSSLSVSVGDRVTISCRASESVEYYVTSLMQWYQQKPGQAPKLLIFAASNVESGVPSRFSGSGSGTNFTLTISSVQEEDFAMYFCQQSRKVPYTFGGGTKLEIKR
In the case of B9, in experiment [2], binding was put at a Kd of 8.36 nM, the koff was 0.000727 s⁻¹ and the kon was 86900 M⁻¹ s⁻¹. In experiment [3], the EC50 worked out at 0.0121 µg/mL.

B10: BCMA28 (scFv)
scFv: QSALTQPPSVSEAPRQRVTISCSGSSSNIGQNAVNWYQKLPGKAPKLLIYYNDLVSSGVSDRFSGSKSGTSASLAISGLQSEDEADYYCATWDDSLNGVVFGGGTKVTVLGGGGSGGGGSGGGGSQVQLVQSGPGLVKPSQTLSLTCAISGDSVSSNSAAWNWIRQSPSRGLEWLGRTYYRSKWYNDYAVSVKSRITINPDTSKNQFSLQLNSVTPEDTAVYYCARDYYYGMDVWGQGTTVTVSS
notes: On lentivirus-transduced T cells as CAR; also called anti-BCMA scFv BCMA28
Turning to B10, the binding result in experiment [1] is listed as “binds”.

B11: BCMA27 (scFv)
scFv: QSALTQPPSASGSPGQSVTISCTGSRSNVGSYNDVSWYQQHPGKAPKLIIYDVDKRPAGVPDRFSGSKSGNTASLTVSGLQAEDDADYYCSSYGGTYSLFVFGTGTELTVLGGGGSGGGGSGGGGSEVQLVESGGDLVQPGGSLRLSCAASGFTFSSYGMHWVRQAPGKGLEWVAVISYDGSNKYYADSVKGRFTISRDNSKNTLYLQMNSLRAEDTAVYYCAKEEFYGDSSYGMDVWGQGTTVTVSS
notes: On lentivirus-transduced T cells as CAR; also called anti-BCMA scFv BCMA27
In the case of B11, the binding result in experiment [1] is reported as “binds”.

B12: BCMA24 (scFv)
scFv: QSVLTQPPSASGTPGQRVTISCSGSSSNIGSYSVNWYQQIPGTAPKLLIYSNNQRPSGVPDRFSGSKSGTSASLAISGLQSEDEADYSCAAWDDSLNGVVFGGGTKLTVLGGGGSGGGGSGGGGSQVQLVQSGAEVKKPGSSVKVSCKASGGTFSSYAISWVRQAPGQGLEWMGGIIPIFGTANYAQKFQGRVTITADESTSTAYMELSSLRSEDTAVYYCARGSFYSSVNVWGQGTTVTVSS
notes: On lentivirus-transduced T cells as CAR; also called anti-BCMA scFv BCMA24
For the molecule B12, the binding result in experiment [1] is reported as “binds”.

B13: BCMA22 (scFv)
scFv: QSALTQPASVSGSPGQSITISCTGTSSDVGGYNYVSWYQQHPGKAPKLMIYEVTNRPSGVSNRFSGSKSGNTASLTISGLQAEDEAHYYCISYTSSSTLDYVFGTGTKVTVLGGGGSGGGGSGGGGSEVQLVESGPGLVKPSGTLSLTCAVSGGSISSSNWWSWVRQPPGKGLEWIGEIYHSGSTNYNPSLKSRVTISVDKSKNQFSLKLSSVTAADTAVYYCARVGSGYSYGYGDRVLDYWGQGTLVTVSS
notes: On lentivirus-transduced T cells as CAR; also called anti-BCMA scFv BCMA22
On to B13, for which the binding result in experiment [1] is “binds”.
